Patent US12138308B2, “Polymer composite for helicobacter pylori recognition and composition for photodynamic therapy comprising same” (eNBiaR Inc., priority 2018, dated 2024)

Legend:
[1] = test system: Helicobacter pylori (SS1 strain); test: Antibacterial activity in vitro by concentration, CFU assay, laser 10.0 J/cm^2; format: cell-based; settings: for concentration at which colonies hardly appear / did not appear / Helicobacter pylori no longer grows / concentration from which the number of Helicobacter pylori colonies decreases: concentration based on the photosensitizer; for concentration at which colonies hardly appear / did not appear / Helicobacter pylori no longer grows / concentration from which the number of Helicobacter pylori colonies decreases / colony result value compared to the NC group at 50.0 μg/ml: laser 10.0 J/cm^2; for colony result value compared to the NC group at 50.0 μg/ml: 50.0 μg/ml free photosensitizer
[2] = test system: Helicobacter pylori SS1 strain; test: Confocal microscopy: interaction with and inactivation of Helicobacter pylori SS1 strain; format: cell-based
Text: (§1) Then, it was redispersed with D.W and the above process was repeated twice.
as §1

AGS cells [3] = test system: AGS cells
Description: AGS cells were dispensed into each well by 1 ml at a concentration of 2×10^4 cells/well in a 24-well plate and cultured at 37° C. and 5% CO2 for 24 hours.
After the reaction, the laser was irradiated in the range of 0-4.0 J/cm^2 using a laser of 50 mW intensity, and the MTT assay was performed to calculate the cell viability compared with the control.

AGS cells [4] = test: Cellular uptake in AGS cells (pheophorbide a fluorescence intensity); format: cell-based, human; settings: 30 minutes at 36° C., equal concentration based on pheophorbide a
Description: After incubation, it was washed twice with DPBS, treated with trypsin and cells were collected and centrifuged (1500 rpm, 3 minutes) to remove the supernatant.

[5] = test system: Helicobacter pylori (26695 strain); test: Inhibition zone analysis of photodynamic antibacterial effect by laser intensity; format: cell-based; settings: 50.0 μg/ml based on Pheoa

For butyl-poly(3SL-lysine)10-Ce6, which “concentration at which colonies hardly appear / did not appear / Helicobacter pylori no longer grows” value [1] is on record?
The value was 1000 ng/mL.

And the “concentration from which the number of Helicobacter pylori colonies decreases” value [1]?
Its value is 500 ng/mL.

With butyl-poly(3SL-lysine)10-HPP as the substance, how does the “number of Helicobacter pylori colonies at 10.0 μg/ml” value ([1]; 10.0 μg/ml based on HPP, laser 10.0 J/cm^2, decreased from 1×10^5 CFU/ml) read?
Its value is 3×10^3 CFU/ml.

And the “concentration at which colonies hardly appear / did not appear / Helicobacter pylori no longer grows” value [1]?
The value was no less than 25000 ng/mL.

Which “interaction with Helicobacter pylori (Cy5 fluorescence of pheophorbide a coinciding with SYTO 9)” value ([2]; SS1 strain 1×10^6 CFU/ml, 1 μg/ml based on pheophorbide a, 37° C., 2 hours) does the source give for butyl-poly(6SL-lysine)10-Pheoa here?
Its value is “fluorescence of Cy5 (purple) of pheophorbide a of HSP did not appear”.

What about the “inactivation: propidium iodide (Red) fluorescence, cell membrane damage” value ([2]; SS1 strain, total 10 J/cm^2, 50 mW, Laser (+) for 3SL-LRHSP, Laser(+) and Laser(−) for the controls) of the same substance?
The value was “propidium iodide (Red) fluorescence was not confirmed”.

butyl-poly(3SL-lysine)10-PPIX was tested. Which “concentration at which colonies hardly appear / did not appear / Helicobacter pylori no longer grows” value [1] did it give?
Its value is 10000 ng/mL.

And the “concentration from which the number of Helicobacter pylori colonies decreases” value [1]?
Its value is 5000 ng/mL.

What does the source list for “3′-sialyllactose-chitosan-pheophorbide a [3SL-Chitosan-Pheoa]”?
concentration at which colonies hardly appear / did not appear / Helicobacter pylori no longer grows [1]: 25000 ng/mL; concentration from which the number of Helicobacter pylori colonies decreases [1]: 10000 ng/mL

With chlorin e6 [Ce6, reference compound] as the substance, how does the “colony result value compared to the NC group at 50.0 μg/ml” value [1] read?
Its value is “more than half”.

Which results are given for “3′-Sialyllactose-Pullulan-Pheophorbide a [Example 3SL-PU-Pheoa]”?
number of Helicobacter pylori colonies at 20.0 μg/ml ([1]; 20.0 μg/ml based on Pheoa, laser 10.0 J/cm^2, decreased from 1×10^5 CFU/ml): 5×10^3 CFU/ml; concentration at which colonies hardly appear / did not appear / Helicobacter pylori no longer grows [1]: ≥ 50000 ng/mL

“succinylated silicon phthalocyanine [SSiPC, reference compound]” was tested. Which “colony result value compared to the NC group at 50.0 μg/ml” value [1] did it give?
Its value is “more than half”.

Which “laser irradiation dose from which cytotoxicity appeared” value (AGS cells [3]) does the source give for pheophorbide a [reference compound] here?
Its value is 0.8 J/cm^2.

What about the “number of Helicobacter pylori colonies at 50.0 μg/ml” value ([1]; 50.0 μg/ml based on Pheoa, same amount of laser (10.0 J/cm^2)) of the same substance?
Its value is 9×10^2 CFU/ml.

What about the “colony result value compared to the NC group at 50.0 μg/ml” value [1] of the same substance?
The value was “slightly less than half”.

What about the “cellular uptake: pheophorbide a fluorescence intensity compared with the control” value (AGS cells [4]) of the same substance?
Its value is 7×10^2.

Which “inhibition zone at laser intensities of 30, 40, and 50 J/cm^2” value ([5]; 100 mW laser) does the source give for “3′-Sialyllactose-PEG-Pheophorbide a [3SL-PEG-Pheoa]” here?
The value was “inhibition zone was also identified”.

And the “inhibition zone at 10.0 J/cm^2 laser” value ([5]; 100 mW laser, read two days later)?
The value was “inhibition zone in which Helicobacter pylori does not grow was confirmed”.

And the “inhibition zone without laser irradiation” value ([5]; comparative group, laser not irradiated)?
The value was “no inhibition zone was found”.

What does the source list for butyl-poly(3SL-lysine)10-SSiPC?
number of Helicobacter pylori colonies at 25.0 μg/ml ([1]; 25.0 μg/ml based on SSiPC, laser 10.0 J/cm^2, decreased from 1×10^5 CFU/ml): 4×10^3 CFU/ml; concentration at which colonies hardly appear / did not appear / Helicobacter pylori no longer grows [1]: 50000 ng/mL
